What was measured:
[1] = target: T1, DEAD-box protein 5 (Dbp5), full length (Saccharomyces cerevisiae, UniProt P20449 1-482); test: stopped-flow fluorescence
T1 sequence (looked up): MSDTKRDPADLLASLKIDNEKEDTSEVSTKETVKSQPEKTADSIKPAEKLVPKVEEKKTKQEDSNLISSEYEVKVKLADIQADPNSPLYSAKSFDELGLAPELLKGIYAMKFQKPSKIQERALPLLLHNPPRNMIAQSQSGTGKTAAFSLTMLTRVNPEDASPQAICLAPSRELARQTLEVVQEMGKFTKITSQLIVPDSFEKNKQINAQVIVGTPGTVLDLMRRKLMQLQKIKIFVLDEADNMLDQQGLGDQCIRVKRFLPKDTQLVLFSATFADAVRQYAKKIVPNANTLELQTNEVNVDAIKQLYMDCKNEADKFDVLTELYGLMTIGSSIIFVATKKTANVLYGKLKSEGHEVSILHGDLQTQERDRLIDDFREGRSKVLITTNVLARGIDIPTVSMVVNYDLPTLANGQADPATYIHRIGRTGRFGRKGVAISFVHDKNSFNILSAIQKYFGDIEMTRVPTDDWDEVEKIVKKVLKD

[2] = target: T1, DEAD-box protein 5 (Dbp5), full length; test: detailed balance of Scheme 3 from measured equilibrium constants
[3] = target: T1, DEAD-box protein 5 (Dbp5), full length; test: detailed balance of Scheme 1 from measured equilibrium constants
[4] = target: T1, DEAD-box protein 5 (Dbp5), full length; test: detailed balance of Scheme 3 from measured equilibrium constants; remark: listed apart in the source
[5] = target: T1, DEAD-box protein 5 (Dbp5), full length; test: as above; remark: listed apart in the source

B1: Gle1 (a.a. 244–538), soluble truncated (domain or fragment, Saccharomyces cerevisiae, UniProt Q12315 244-538, looked up)
chain: TNFDKISKMFWHYKDKIAQIKQDIVLPIKKADVNVRNLLSRHKRKINPKFGQLTNSNQQLFKIQNELTQLINDTKGDSLAYHWILNFIAKAVVHQAETEVRVKPESALPLGKLTLYLLVQFPELQELFMARLVKKCPFVIGFTCEIDTEKGRQNMGWKRNNENKWEDNTSYDERMGGILSLFAIITRLQLPQEFITTTSHPFPIALSWHILARICNTPLNLITNTHFVILGSWWDAAAVQFLQAYGNQASKLLILIGEELTSRMAEKKYVGAARLRILLEAWQNNNMESFPEMSP
Kd [1]: 170 ± 150 nM | Kd [2]: 1.5 ± 0.8 nM | Kd [3]: 800 ± 300 nM | Kd [4]: 500 ± 200 nM | Kd [5]: 600 ± 200 nM

Source: article PMC9023272 (Nucleic Acids Research, 2022)
